Columns and labels:
[1] = molecular target: mouse melanocortin 3 receptor (mouse) (UniProt P33033); assay: cell-based or functional assay
[2] = molecular target: mouse melanocortin 1 receptor (mouse) (UniProt Q01727); assay: cell-based or functional assay
Sequence of mouse melanocortin 1 receptor (mouse) (Q01727 whole entry): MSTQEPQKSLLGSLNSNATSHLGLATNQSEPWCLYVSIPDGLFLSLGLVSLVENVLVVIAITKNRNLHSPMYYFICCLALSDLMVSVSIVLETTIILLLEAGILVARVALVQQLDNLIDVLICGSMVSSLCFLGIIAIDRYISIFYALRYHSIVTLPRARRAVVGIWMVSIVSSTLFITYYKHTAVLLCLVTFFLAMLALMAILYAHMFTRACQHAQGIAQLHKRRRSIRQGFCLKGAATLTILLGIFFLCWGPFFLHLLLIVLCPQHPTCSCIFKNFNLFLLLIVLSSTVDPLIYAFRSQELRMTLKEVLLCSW

Sequence of mouse melanocortin 3 receptor (mouse) (P33033 whole entry): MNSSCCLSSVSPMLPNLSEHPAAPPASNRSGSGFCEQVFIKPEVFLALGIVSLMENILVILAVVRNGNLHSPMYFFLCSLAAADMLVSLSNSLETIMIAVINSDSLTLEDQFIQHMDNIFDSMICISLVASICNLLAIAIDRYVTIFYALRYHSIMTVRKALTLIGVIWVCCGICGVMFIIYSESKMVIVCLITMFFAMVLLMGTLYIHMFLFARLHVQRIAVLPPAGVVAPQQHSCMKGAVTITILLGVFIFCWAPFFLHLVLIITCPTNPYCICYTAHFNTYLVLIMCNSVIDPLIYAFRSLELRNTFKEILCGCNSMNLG

NDP-MSH (4-Norleucine-7-D-Phenylalanine), Ac-Ser-Tyr-Ser-Nle-Glu-His-DPhe-Arg-Trp-Gly-Lys-Pro-Val-NH2 (peptide)
EC50 (nM), agonist, cAMP AlphaScreen [1]: 0.09 nM | EC50 (nM), agonist, cAMP AlphaScreen [2]: 0.015 nM
